Results on two molecules are retold here after US20200197483A1 (MOREHOUSE SCHOOL OF MEDICINE, published 2020).

For one test, the target named is T1, Mortalin (UniProt P38646 47-679).
T1 construct: Endogenous protein pulled down from Jurkat cell lysate (a human T cell line); also called Glucose-regulated protein 75 (GRP75)
The test can be described thus: immunoprecipitation from Jurkat lysate, Western blot with anti-mortalin antibody. In general terms: A western blot detects proteins with antibodies after separation by electrophoresis.

The next test deals with T2, E. coli DnaK protein (Escherichia coli, UniProt P0A6Y8 2-638).
T2 construct: Endogenous protein in E. coli lysate; also called heat shock protein 70 (Hsp70)
The test can be described thus: ANTI-FLAG M2 immunoprecipitation from E. coli lysate, Western blot with anti-DnaK antibody.

T1 sequence (P38646 47-679 limits assumed): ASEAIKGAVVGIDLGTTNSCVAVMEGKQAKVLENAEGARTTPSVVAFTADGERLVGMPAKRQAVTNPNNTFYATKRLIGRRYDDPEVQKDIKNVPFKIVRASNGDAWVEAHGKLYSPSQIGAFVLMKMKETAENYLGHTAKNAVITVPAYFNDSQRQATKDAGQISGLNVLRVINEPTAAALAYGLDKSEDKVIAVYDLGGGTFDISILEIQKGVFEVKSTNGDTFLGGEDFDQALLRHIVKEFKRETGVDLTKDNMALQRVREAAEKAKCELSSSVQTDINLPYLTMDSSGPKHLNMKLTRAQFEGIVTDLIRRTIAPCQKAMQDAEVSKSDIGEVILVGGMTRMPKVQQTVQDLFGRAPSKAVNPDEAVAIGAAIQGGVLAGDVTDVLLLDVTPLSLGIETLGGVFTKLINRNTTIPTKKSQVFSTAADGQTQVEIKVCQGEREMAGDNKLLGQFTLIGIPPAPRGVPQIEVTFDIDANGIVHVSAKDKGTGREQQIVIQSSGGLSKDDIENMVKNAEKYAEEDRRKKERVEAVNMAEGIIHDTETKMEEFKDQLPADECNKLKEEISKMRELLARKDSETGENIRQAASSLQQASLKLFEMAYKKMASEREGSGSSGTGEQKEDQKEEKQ
T2 sequence (P0A6Y8 2-638 limits assumed): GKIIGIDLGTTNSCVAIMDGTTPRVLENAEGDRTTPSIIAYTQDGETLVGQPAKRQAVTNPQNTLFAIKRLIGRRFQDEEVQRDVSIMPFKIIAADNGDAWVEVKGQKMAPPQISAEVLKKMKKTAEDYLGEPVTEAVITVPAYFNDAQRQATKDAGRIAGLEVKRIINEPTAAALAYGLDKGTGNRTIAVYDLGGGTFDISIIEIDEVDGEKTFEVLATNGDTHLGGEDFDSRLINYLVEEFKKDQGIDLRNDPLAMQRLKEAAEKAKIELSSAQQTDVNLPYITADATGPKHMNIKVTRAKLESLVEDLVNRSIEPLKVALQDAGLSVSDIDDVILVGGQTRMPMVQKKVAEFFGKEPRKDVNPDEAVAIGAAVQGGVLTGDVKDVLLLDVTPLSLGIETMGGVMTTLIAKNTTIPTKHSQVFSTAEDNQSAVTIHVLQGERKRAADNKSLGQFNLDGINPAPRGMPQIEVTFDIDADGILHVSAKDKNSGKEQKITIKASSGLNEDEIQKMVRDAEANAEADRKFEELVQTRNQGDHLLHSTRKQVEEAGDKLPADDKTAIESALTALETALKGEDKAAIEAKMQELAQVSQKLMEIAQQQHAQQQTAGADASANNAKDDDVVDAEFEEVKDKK

B1: HIV-1 Nef SMRwt peptide (peptide)
peptide: VGFPVAAVGFPVDYKDDDDK
notes: Synthetic peptide with two SMR motifs and a C-terminal FLAG tag; also called SMRwt (wide-type) peptide; antagonist peptide
With B1, the binding result in the test with Mortalin and with E. coli DnaK protein was “binds” throughout.

B2: HIV-1 Nef SMRmut peptide (peptide)
peptide: AGFPVAAAGFPVDYKDDDDK
notes: Synthetic negative control peptide; the first valine of each VGFPV motif is changed to alanine; also called SMRmut (mutant) peptide; negative control peptide
As to B2, the binding result with Mortalin was “no binding”; in the test with E. coli DnaK protein, “no binding (tested: 1 µg peptide with 1 mg E. coli lysate)”.
